Laboratory results: paper PMC11021369, “Resolving the polycistronic aftermath: Essential role of topoisomerase IA in preventing R-loops in Leishmania” (The Journal of Biological Chemistry, 2024)

Tests used:
[1] = target: T1, LdTOPIA (Leishmania donovani DNA topoisomerase IA) (Leishmania donovani, UniProt A0A3S7WW83); assay: plasmid DNA relaxation assay with purified LdTOPIA ([…] drug), agarose gel; assay type: biochemical
T1 construct: gene LdCL_210006600; full length, 7xHis-LdTOPIA-6xHis (809 aa), expressed in L. tarentolae LtT7TR
T1 sequence (A0A3S7WW83 1-809): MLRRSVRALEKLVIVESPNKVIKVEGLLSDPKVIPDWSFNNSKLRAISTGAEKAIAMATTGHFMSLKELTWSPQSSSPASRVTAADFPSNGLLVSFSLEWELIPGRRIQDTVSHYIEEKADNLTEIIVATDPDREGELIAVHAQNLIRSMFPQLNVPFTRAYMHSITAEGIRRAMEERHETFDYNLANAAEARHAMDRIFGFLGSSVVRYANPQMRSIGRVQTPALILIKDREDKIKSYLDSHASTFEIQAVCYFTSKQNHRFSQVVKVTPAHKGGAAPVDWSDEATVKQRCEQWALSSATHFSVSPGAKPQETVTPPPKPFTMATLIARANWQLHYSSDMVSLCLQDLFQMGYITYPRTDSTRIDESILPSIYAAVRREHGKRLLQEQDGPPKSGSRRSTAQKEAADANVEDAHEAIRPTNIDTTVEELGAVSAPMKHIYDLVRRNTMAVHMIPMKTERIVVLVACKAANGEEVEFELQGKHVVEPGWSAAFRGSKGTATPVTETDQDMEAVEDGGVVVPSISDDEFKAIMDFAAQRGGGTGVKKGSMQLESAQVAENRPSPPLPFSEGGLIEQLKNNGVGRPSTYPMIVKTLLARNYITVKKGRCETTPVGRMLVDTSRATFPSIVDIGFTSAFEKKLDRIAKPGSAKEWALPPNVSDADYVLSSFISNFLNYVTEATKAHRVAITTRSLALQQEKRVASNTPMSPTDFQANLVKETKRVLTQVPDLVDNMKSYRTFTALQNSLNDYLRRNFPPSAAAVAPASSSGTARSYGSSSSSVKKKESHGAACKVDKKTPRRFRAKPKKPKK

Human TOPIB = target: T2, Human TOPIB (Homo sapiens, UniProt P11387); assay: plasmid DNA relaxation assay with commercial human TOPIB, […] drug (Fig. S3C); assay type: biochemical
T2 construct: gene TOP1
T2 sequence (P11387 2-765): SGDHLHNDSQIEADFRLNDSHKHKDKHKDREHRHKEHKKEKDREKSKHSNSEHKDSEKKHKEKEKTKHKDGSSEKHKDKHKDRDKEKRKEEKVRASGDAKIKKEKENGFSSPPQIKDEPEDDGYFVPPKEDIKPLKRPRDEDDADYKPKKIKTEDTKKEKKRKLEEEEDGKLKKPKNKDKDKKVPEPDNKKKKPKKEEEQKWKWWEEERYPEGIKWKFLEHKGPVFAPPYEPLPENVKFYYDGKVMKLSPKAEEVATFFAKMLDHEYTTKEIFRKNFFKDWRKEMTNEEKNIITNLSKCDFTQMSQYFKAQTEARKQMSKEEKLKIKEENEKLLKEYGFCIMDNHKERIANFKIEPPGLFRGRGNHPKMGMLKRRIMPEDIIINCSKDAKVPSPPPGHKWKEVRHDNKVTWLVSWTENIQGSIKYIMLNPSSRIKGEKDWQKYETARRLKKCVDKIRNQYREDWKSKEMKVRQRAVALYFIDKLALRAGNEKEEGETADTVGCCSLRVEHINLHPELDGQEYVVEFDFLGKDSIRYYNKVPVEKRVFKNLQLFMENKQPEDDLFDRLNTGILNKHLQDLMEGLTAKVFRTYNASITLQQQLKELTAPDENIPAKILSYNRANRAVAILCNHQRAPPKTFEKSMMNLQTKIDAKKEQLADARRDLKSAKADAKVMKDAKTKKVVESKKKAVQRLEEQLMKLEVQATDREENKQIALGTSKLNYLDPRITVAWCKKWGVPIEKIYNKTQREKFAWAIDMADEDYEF

[2] = target: T3, LdTOPIA (DNA topoisomerase IA) (Leishmania donovani DD8, UniProt A0A3S7WW83 1-809); assay: fluorescence anisotropy; 30 nM DNA, 0.5 mM EDTA; 50 mM Tris pH 7.5, 100 mM NaCl, 0.5 mM DTT, 0.5 mM EDTA, 5% glycerol, 15 min, 25 °C (EMSA gel at 4 °C); settings: protein: recombinant, tags: N-term 7xHis, C-term 6xHis
T3 sequence: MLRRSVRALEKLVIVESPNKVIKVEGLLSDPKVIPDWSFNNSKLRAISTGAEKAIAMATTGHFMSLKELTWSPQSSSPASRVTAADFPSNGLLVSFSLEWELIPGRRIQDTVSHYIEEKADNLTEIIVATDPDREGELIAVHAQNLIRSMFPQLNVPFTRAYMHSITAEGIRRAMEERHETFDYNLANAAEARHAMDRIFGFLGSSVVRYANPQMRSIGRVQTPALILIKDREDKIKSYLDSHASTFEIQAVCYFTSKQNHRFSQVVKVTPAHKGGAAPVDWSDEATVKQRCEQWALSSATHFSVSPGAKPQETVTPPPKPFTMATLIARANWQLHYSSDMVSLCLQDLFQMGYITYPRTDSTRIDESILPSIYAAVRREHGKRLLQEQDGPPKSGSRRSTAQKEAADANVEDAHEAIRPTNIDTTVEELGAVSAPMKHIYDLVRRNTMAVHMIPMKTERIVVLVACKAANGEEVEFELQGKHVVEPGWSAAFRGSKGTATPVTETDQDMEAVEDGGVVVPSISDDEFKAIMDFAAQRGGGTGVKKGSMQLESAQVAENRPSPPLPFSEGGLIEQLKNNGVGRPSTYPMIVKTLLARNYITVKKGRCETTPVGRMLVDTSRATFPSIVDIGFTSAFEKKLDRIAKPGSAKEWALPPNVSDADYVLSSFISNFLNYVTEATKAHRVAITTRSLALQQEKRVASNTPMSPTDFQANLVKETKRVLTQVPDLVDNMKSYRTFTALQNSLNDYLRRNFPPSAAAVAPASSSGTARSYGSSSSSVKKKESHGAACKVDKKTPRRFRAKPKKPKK

[3] = target: T3, LdTOPIA (DNA topoisomerase IA); assay: fluorescence anisotropy; 50 mM Tris pH 7.5, 100 mM NaCl, 0.5 mM DTT, 0.5 mM EDTA, 5% glycerol, 15 min, 25 °C (EMSA gel at 4 °C); settings: protein: recombinant; tags: N-term 7xHis, C-term 6xHis; label: 5' FAM on RNA strand; blunt
[4] = target: T4, RNase H I, catalytically inactive D210N (Homo sapiens, UniProt O60930 1-286, D210N); assay: fluorescence anisotropy; 30 nM duplex, 2-200 nM protein; 50 mM Tris pH 7.5, 100 mM NaCl, 0.5 mM DTT, 0.5 mM EDTA, 5% glycerol, 15 min, 25 °C (EMSA gel at 4 °C); settings: protein: recombinant; tags: His (pET15b; Ni-NTA purified); label: 5' FAM on RNA strand; blunt
T4 sequence: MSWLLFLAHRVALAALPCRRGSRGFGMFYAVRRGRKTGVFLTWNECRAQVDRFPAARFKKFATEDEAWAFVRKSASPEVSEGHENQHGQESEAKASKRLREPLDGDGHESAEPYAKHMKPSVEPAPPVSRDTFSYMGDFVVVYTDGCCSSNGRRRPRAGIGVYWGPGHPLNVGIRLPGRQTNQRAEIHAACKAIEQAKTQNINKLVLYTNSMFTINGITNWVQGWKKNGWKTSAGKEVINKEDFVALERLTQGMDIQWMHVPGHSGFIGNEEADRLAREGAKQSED

CN(C)CCCN1c2ccccc2CCc2ccccc21 [imipramine]
plasmid DNA relaxation assay with purified LdTOPIA (10, 20 and 40 μM drug), agar [1]: Both imipramine and norclomipramine (NCL) could inhibit the DNA relaxation by LdTOPIA

CC[C@@]1(O)C(=O)OCc2c1cc1n(c2=O)Cc2cc3ccccc3nc2-1 [CPT, Camptothecin]
plasmid DNA relaxation assay with commercial human TOPIB, 10 μM drug (Fig. S3C) (Human TOPIB): Etoposide and CPT could effectively inhibit plasmid relaxation of the TOPIB and TOPII respectively (Fig. S3C)

TATTGGGCGCTCTTCCGCTTCCTCGCTCACTG (ssDNA) [32-nt ssDNA, FAM]
Kd ([2]; label: 5' FAM): 3.16 ± 0.12 nM

B1: 32-bp dsDNA, FAM (dsDNA)
DNA 1: TATTGGGCGCTCTTCCGCTTCCTCGCTCACTG
DNA 2: CAGTGAGCGAGGAAGCGGAAGAGCGCCCAATA
Kd ([2]; label: 5' FAM on strand 1, blunt): 8.1 ± 0.23 nM

B2: DNA:RNA duplex, FAM-RNA (DNA:RNA)
RNA: UAUUGGGCGCUCUUCCGCUUCCUCGCUCACUG
DNA: CAGTGAGCGAGGAAGCGGAAGAGCGCCCAATA
binding result [3]: no binding
binding result [4]: binds
